This is an account of results in paper PMC7718890.

For one data set, the target named is CarD K90A;MTB RNAP (WT) (Mycobacterium …, UniProt P9WJG3;P9WGZ1;P9WGY9;P9WGY7;P9WGY5 1-162;1-347;1-1178;1-1316;1-110, K90A|). In words: competition (fluorescence polarization). The note with it: protein: recombinant;recombinant; tags: ;; copies: 1;2;1;1;1; blunt. (In general: In fluorescence polarisation assays a small probe gives low polarisation when free and higher when bound to something large.)

Another data set concerns the target CarD R47E;MTB RNAP (WT) (Mycobacterium …, UniProt P9WJG3;P9WGZ1;P9WGY9;P9WGY7;P9WGY5 1-162;1-347;1-1178;1-1316;1-110, R47E|). As to the kind of experiment: competition (fluorescence polarization). To be noted: protein: recombinant;recombinant; tags: ;; copies: 1;2;1;1;1; blunt.

B1: rrnAP3 native 61 bp (dsDNA)
DNA 1: GATGACCGAACCTGGTCTTGACTCCATTGCCGGATTTGTATTAGACTGGCAGGGTTGCCCC
DNA 2: GGGGCAACCCTGCCAGTCTAATACAAATCCGGCAATGGAGTCAAGACCAGGTTCGGTCATC
Broadly, the Ki is a dissociation constant, usually derived from enzyme kinetics or from competition with a known ligand. Consider B1, for which the Ki came out at 85 ± 6 nM in the data set with CarD K90A;MTB RNAP (WT) and 129 ± 14 nM with CarD R47E;MTB RNAP (WT).
